{"source": "paper PMC8588329", "molecular_target": "recombinant Plasmodium knowlesi lactate dehydrogenase (Plasmodium knowlesi)", "assay": "SEC; Superdex 200 10/300 GL, 50 mM phosphate buffer pH 7.4, 250 mM NaCl, 0.50 mL/min; elution volume 13 mL set against a calibration curve of protein standards"}
{"substance": "recombinant Plasmodium knowlesi lactate dehydrogenase (enzyme)", "values": [{"measurement": "stoichiometry N", "value": 4}]}
